Experiments:
[1] = target: T1, FcγRIIb extracellular domain with C-terminal His tag (human, UniProt P31994 43-217); assay: SPR (Biacore), relative binding, HeCon Ab = 100
T1 construct: extracellular domain; Expressed in FreeStyle293 cells; analyte in the SPR assay; also called FcgRIIb; 2b
T1 sequence (looked up): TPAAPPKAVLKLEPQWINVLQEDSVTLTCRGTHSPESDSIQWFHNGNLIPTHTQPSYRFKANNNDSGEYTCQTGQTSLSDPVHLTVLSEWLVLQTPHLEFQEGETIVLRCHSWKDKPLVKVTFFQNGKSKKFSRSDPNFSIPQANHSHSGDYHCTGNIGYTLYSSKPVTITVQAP

[2] = target: T2, FcγRIa extracellular domain with C-terminal His tag (human, UniProt P12314 16-292); assay: SPR (Biacore), relative binding, HeCon Ab = 100
T2 construct: extracellular domain; Expressed in FreeStyle293 cells; analyte in the SPR assay; also called FcgRI; 1a
T2 sequence (P12314 16-292): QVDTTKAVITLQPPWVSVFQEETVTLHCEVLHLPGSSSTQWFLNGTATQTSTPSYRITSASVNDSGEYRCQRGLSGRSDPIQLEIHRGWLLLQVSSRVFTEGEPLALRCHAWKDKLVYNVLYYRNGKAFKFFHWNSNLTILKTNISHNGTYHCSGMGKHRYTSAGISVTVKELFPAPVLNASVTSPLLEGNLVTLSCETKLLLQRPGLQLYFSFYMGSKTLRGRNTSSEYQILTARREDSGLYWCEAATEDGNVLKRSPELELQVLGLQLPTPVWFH

[3] = target: T3, FcγRIIb, extracellular domain with C-terminal His tag (human, UniProt P31994 43-217); assay: SPR (Biacore), antibody captured, FcγR analyte; vs GpH7-A5/GpH7-B3/GpL16-k0 = 100
T3 construct: extracellular domain; made in FreeStyle293 cells; analyte in the Biacore assay; also called 2b; FcgRIIb
T3 sequence (looked up): T1 sequence (looked up)
Description: (§1) The heterodimerized antibodies He Abs in which one of the H chains was introduced with an alteration were assayed for their binding activities to each activating FcγR and inhibitory FcγR according to the method described in Example 4. […] The activating FcγRs in FIGS. 26, 27, 28, and 29 are FcγRIa, FcγRIIa (R), FcγRIIa (H), and FcγRIIIa, respectively.
(§2) Analysis of interaction between objective antibody and the FcγR was carried out using Biacore T100 (GE Healthcare). HBS-EP+ (GE Healthcare) was used as the running buffer, and the measurement temperature was set to 25° C. Chips produced by immobilizing the antigen peptide by the amine coupling method to a Series S Sencor Chip CM5 (GE Healthcare), or alternatively, chips produced by allowing preliminarily biotinylated antigen peptides to interact with and immobilize onto a Series S Sensor Chip SA (certified) (GE Healthcare) were used. Antibodies of interest were captured onto an antigen peptide-immobilized chip, and allowed to interact to each FcγR diluted with running buffer. To regenerate and repeatedly use the chip, the antibodies captured on the chip were washed off by reacting 10 mM glycine-HCl, pH 1.5.

[4] = target: T4, FcγRIIa R (FcγRIIa allotype with Arg at position 131), extracellular domain with C-terminal His tag (human, UniProt P12318 34-217); assay: as above
T4 construct: extracellular domain; made in FreeStyle293 cells; analyte in the Biacore assay; also called FcγRIIa type R; 2aR
T4 sequence (looked up): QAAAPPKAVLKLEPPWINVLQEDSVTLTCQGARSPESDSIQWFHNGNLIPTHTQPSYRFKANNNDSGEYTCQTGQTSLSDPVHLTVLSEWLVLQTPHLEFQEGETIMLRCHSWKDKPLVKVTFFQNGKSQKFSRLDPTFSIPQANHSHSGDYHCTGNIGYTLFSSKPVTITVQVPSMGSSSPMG
Description: as §1, §2

B1: GpH7-A5/GpH7-B3 variant Q295_02A/GpL16-k0 (He Ab) (antibody, human IgG1, kappa)
heavy 1: not shown
heavy 2: not shown
light: DIVMTQSPLSLPVTPGEPASISCQASESLVHSNRNTYLHWYLQKPGQSPQLLIYKVSNRFSGVPDRFSGSGSGTDFTLKISRVEAEDVGVYYCSQNTHVPPTFGQGTKVEIERTVAAPSVFIFPPSDEQLKSGTASVVCLLNNFYPREAKVQWKVDNALQSGNSQESVTEQDSKDSTYSLSSTLTLSKADYEKHKVYACEVTHQGLSSPVTKSFNRGEC
notes: He Ab: mutation in one H chain only
[1]
  He/Con_2b: 79.7 % of HeCon Ab (=100)
[2]
  He/Con_1a: 104 % of HeCon Ab (=100)

B2: GpH7-A5/GpH7-B3 variant P271_03V/GpL16-k0 (He Ab) (antibody, human IgG1, kappa)
heavy 1: not shown
heavy 2: not shown
light: B1 light
notes: as for B1
[1]
  He/Con_2b: 74.8 % of HeCon Ab (=100)
[2]
  He/Con_1a: 102 % of HeCon Ab (=100)

B3: GpH7-A5/GpH7-B3 variant P271_20W/GpL16-k0 (He Ab) (antibody, human IgG1, kappa)
heavy 1: not shown
heavy 2: not shown
light: B1 light
notes: as for B1
[1]
  He/Con_2b: 58.1 % of HeCon Ab (=100)
[2]
  He/Con_1a: 103 % of HeCon Ab (=100)

B4: GpH7-A5/GpH7-B3 variant G236_02A/GpL16-k0 (He Ab) (antibody, human IgG1, kappa)
heavy 1: not shown
heavy 2: not shown
light: B1 light
notes: as for B1
[1]
  He/Con_2b: 96.5 % of HeCon Ab (=100)
[2]
  He/Con_1a: 100 % of HeCon Ab (=100)

B5: GpH7-A5/GpH7-B3 variant S267_16H/GpL16-k0 (He Ab) (antibody, human IgG1, kappa)
heavy 1: not shown
heavy 2: not shown
light: B1 light
notes: as for B1
[1]
  He/Con_2b: 65.9 % of HeCon Ab (=100)
[2]
  He/Con_1a: 100 % of HeCon Ab (=100)

B6: GpH7-A5/GpH7-B3 variant S239_19Q/GpL16-k0 (He Ab) (antibody, human IgG1, kappa)
heavy 1: not shown
heavy 2: not shown
light: B1 light
notes: as for B1
[1]
  He/Con_2b: 86.1 % of HeCon Ab (=100)
[2]
  He/Con_1a: 101 % of HeCon Ab (=100)

B7: GpH7-A5/GpH7-B3 variant S267_18N/GpL16-k0 (He Ab) (antibody, human IgG1, kappa)
heavy 1: not shown
heavy 2: not shown
light: B1 light
notes: as for B1
[1]
  He/Con_2b: 47.7 % of HeCon Ab (=100)
[2]
  He/Con_1a: 102 % of HeCon Ab (=100)

B8: GpH7-A5/GpH7-B3 variant G236_20W/GpL16-k0 (He Ab) (antibody, human IgG1, kappa)
heavy 1: not shown
heavy 2: not shown
light: B1 light
notes: as for B1
[1]
  He/Con_2b: 58.2 % of HeCon Ab (=100)
[2]
  He/Con_1a: 105 % of HeCon Ab (=100)

B9: GpH7-A5/GpH7-B3 variant H268_12R/GpL16-k0 (He Ab) (antibody, human IgG1, kappa)
heavy 1: not shown
heavy 2: not shown
light: B1 light
notes: as for B1
[1]
  He/Con_2b: 89.8 % of HeCon Ab (=100)
[2]
  He/Con_1a: 106 % of HeCon Ab (=100)

B10: GpH7-A5/GpH7-B3 variant P271_02A/GpL16-k0 (He Ab) (antibody, human IgG1, kappa)
heavy 1: not shown
heavy 2: not shown
light: B1 light
notes: as for B1
[1]
  He/Con_2b: 88 % of HeCon Ab (=100)
[2]
  He/Con_1a: 104 % of HeCon Ab (=100)

B11: GpH7-A5/GpH7-B3 variant P271_04F/GpL16-k0 (He Ab) (antibody, human IgG1, kappa)
heavy 1: not shown
heavy 2: not shown
light: B1 light
notes: as for B1
[1]
  He/Con_2b: 59.5 % of HeCon Ab (=100)
[2]
  He/Con_1a: 102 % of HeCon Ab (=100)

B12: GpH7-A5/GpH7-B3 variant P271_11K/GpL16-k0 (He Ab) (antibody, human IgG1, kappa)
heavy 1: not shown
heavy 2: not shown
light: B1 light
notes: as for B1
[1]
  He/Con_2b: 90.2 % of HeCon Ab (=100)
[2]
  He/Con_1a: 103 % of HeCon Ab (=100)

B13: GpH7-A5/GpH7-B3 variant H268_07I/GpL16-k0 (He Ab) (antibody, human IgG1, kappa)
heavy 1: not shown
heavy 2: not shown
light: B1 light
notes: as for B1
[1]
  He/Con_2b: 88.9 % of HeCon Ab (=100)
[2]
  He/Con_1a: 108 % of HeCon Ab (=100)

B14: GpH7-A5/GpH7-B3 variant E269_20W/GpL16-k0 (He Ab) (antibody, human IgG1, kappa)
heavy 1: not shown
heavy 2: not shown
light: B1 light
notes: as for B1
[1]
  He/Con_2b: 42.5 % of HeCon Ab (=100)
[2]
  He/Con_1a: 105 % of HeCon Ab (=100)

B15: GpH7-A5/GpH7-B3 variant L234_15Y/GpL16-k0 (He Ab) (antibody, human IgG1, kappa)
heavy 1: not shown
heavy 2: not shown
light: B1 light
notes: as for B1
[1]
  He/Con_2b: 96.3 % of HeCon Ab (=100)
[2]
  He/Con_1a: 100 % of HeCon Ab (=100)

B16: GpH7-A5/GpH7-B3 variant P271_13S/GpL16-k0 (He Ab) (antibody, human IgG1, kappa)
heavy 1: not shown
heavy 2: not shown
light: B1 light
notes: as for B1
[1]
  He/Con_2b: 87.6 % of HeCon Ab (=100)
[2]
  He/Con_1a: 102 % of HeCon Ab (=100)

B17: GpH7-A5/GpH7-B3 variant P271_15Y/GpL16-k0 (He Ab) (antibody, human IgG1, kappa)
heavy 1: not shown
heavy 2: not shown
light: B1 light
notes: as for B1
[1]
  He/Con_2b: 52.3 % of HeCon Ab (=100)
[2]
  He/Con_1a: 103 % of HeCon Ab (=100)

B18: GpH7-A5/GpH7-B3 variant A330_11K/GpL16-k0 (antibody, human IgG1, kappa)
heavy 1: not shown
heavy 2: not shown
light: B1 light
notes: heterodimerized IgG1, mutation in one H chain only; also called He Ab
[3]
  He/Con_2b: 95 relative (HeCon Ab = 100)
[4]
  He/Con_2aR: 110 relative (HeCon Ab = 100)

B19: GpH7-A5/GpH7-B3 variant P271_18N/GpL16-k0 (He Ab) (antibody, human IgG1, kappa)
heavy 1: not shown
heavy 2: not shown
light: B1 light
notes: as for B1
[1]
  He/Con_2b: 93.3 % of HeCon Ab (=100)
[2]
  He/Con_1a: 103 % of HeCon Ab (=100)

B20: GpH7-A5/GpH7-B3 variant L234_04F/GpL16-k0 (He Ab) (antibody, human IgG1, kappa)
heavy 1: not shown
heavy 2: not shown
light: B1 light
notes: as for B1
[1]
  He/Con_2b: 99.8 % of HeCon Ab (=100)
[2]
  He/Con_1a: 101 % of HeCon Ab (=100)

B21: GpH7-A5/GpH7-B3 variant P271_19Q/GpL16-k0 (He Ab) (antibody, human IgG1, kappa)
heavy 1: not shown
heavy 2: not shown
light: B1 light
notes: as for B1
[1]
  He/Con_2b: 88.6 % of HeCon Ab (=100)
[2]
  He/Con_1a: 103 % of HeCon Ab (=100)
